Data published in patent US20250034594A1, “RNA-GUIDED GENOME RECOMBINEERING AT KILOBASE SCALE” (THE BOARD OF TRUSTEES OF THE LELAND STANFORD JUNIOR …, priority 2021, published 2025).

B1: SSAP_291: SEQ ID NO: 460; Nocardia pseudobrasiliensis (protein, listed as Nocardia pseudobrasiliensis)
chain: SSIANAANASELTPASIVNRYRDDIAAVLPPKLQARIDRWLRLAIGAVNSNADLVDRVRADQGASMMQTLMKCAALGHEPGSGLFHLVPKGPRIEGWEDYKGVLQRIDRSGVYARVVVEVVHANDDYAYDPNLDDRPQHKRAAADRGEPVSAYAYAVYPNGAVTAVAEATPELIAASKAKARGADNASSPWRAPGAPMHRKVAIRQLEKFVATSAEDMREVAVRNAAPDVEDAPADYYQEP
B2: SSAP_106: SEQ ID NO: 275; Tepidibacillus fermentans (protein)
chain: ATNEKVKTQLANRANGQAPTPTPEQTIAAYMKKMAPRFAEVLPKHMDIDRMTRIALTTIRTNPKLLEASVPSLLGAIMQAAQLGLEPGLVGHCYLVPFKNGKTGQTEVQFIIGYKGMIDLARRSGNIESIYAHAVYENDTFEYEYGLHPKLVHKPAMTDRGEFIGAYAVAHFKDGGYQFEFMPKEEIEKRRNRSKTANGGPWVTDYEEMAKKTVVRHMWKYLPISIEIQQAAAQDEVIRKDVTSEPEFVDDVIDISTEIEEQSVEVEGEEAQ
modifications: Tepidibacillus fermentans
B3: SSAP_103: SEQ ID NO: 272; Zymobacter palmae (protein, listed as Zymobacter palmae)
chain: TNTVQQQAPQQDQLAQQLQQASGNTPQKKPMPSTIQGMLKDDRFKTQIARALPKHVTPERIMRIALTEINKTPKLKECDPIGLFGSIVQSAQLGLELGGALGHAYLVPYGKQAQFIIGYRGMIDLARRSGQMVSLQAHTVHENDEFNFEYGLNENLRHVPARGERGPMIAVYAVAKLVGGGHQIEVMWKEDVDAVRKSSKAGGSGPWRDHYEEMAKKTAIRRLFKYLPVSVEMQRAVSLDEQAEEGVQDNNVFDGDYTVAEH
B4: SSAP_130: SEQ ID NO: 299; Peptoanaerobacter stomatis (protein, listed as Peptoanaerobacter stomatis)
chain: GAKELIQKKQENKQISPTSNMNMLLQSMAGAIKKALPAQINSERFQRVALTAFSSNQKLQQCDPISFLAAMMQSAQLGLEPNTPLGQAYLIPYGKQVQFQVGYKGLLELAQRSGQFKSIYSHEVRENDEFEMEYGLNQKLVHKPNLKQERGEVIGYYACYHLTNGGESMFFMTKDEIINFGKSKSKTFNNGPWQTDFDAMAKKTVLKQLLKYAPLSIESQKFMSMDETVKSDISANMDEINNDTVDFEVDIQTGEVINDIVVENTNEDEAN
B5: SSAP_275: SEQ ID NO: 444; Paenibacillus pinihumi (protein, listed as Paenibacillus pinihumi)
chain: ADANKLLVINEKLIKLIESKQDAMPKSFNKTRFIQNCMAVLQDTDEIDKCDATSVARTLLKGAFLGLDFMNKECYPIIYGGKCTFQTDYKGEIKLAQKYSVRPVLNIYAELVREGDFFLKEVKDGQRTIQHKPPEGFNDGKVIGAFAIVLYKDGGMDCESMSVAEIETTRKNYSKQANGPSWTKSPGEMQKKTVLRRLCKTIQLDFDTIEAKEAFEDGGDFDFKQDPKPQQQSPFDKNATVVDAEYEEVEEEDQSESAT
B6: SSAP_65: SEQ ID NO: 234 (protein)
chain: TQDLATAIADQQPAQRRTAFDLVESMRGELHKALPEHASIDNFLRLALTELKMNPQLGNCSGESLLGALMTAARVGLEVGGPLGQFYLTPRRLKRDGWAVVPIVGYRGLITLARRAGVGQVNAVVVHEGDTFREGASSERGFFFDWEPAVERGKPVGALAAARLAGGDVQHRYLSLAEVHERRDRGGFKDGSNSPWATDYDAMVRKTALRALVPLLPQSTALSFAVQADEQVQRYDAGDIDIPALDETDTEDTK
B7: SSAP_27: SEQ ID NO: 196 (protein)
chain: SNNQLSTQQAKRDIAIDTSVWTFQDVKRYFDPQNLLTEKQVGQALSLIKGRNLNPLANEVYIVAYKKKTGGTEFSLIVSKEAFLKRAAQNPNYEGFEAGVVTVDTDGVMHERKGALMLPGDTLVGGWARVYRKNFKVPVEIFVSREEYDKKQSTWNAMPATMIRKTALVNALREAFPEDLGNMYTEDDGGETFDRIKQAEPVESREDVMARKMAQIEQMKQEQAQRQIDTSYPTDDVIDPDDEPAQGELLEDLEY
B8: SSAP_72: SEQ ID NO: 241 (protein)
chain: ATNSSLKNQLSKKENVTIGNTMQGLLNNPKMKKRFEEILDKKAPQYMSSILNLYNGDTSLQKCEPMSVLSSSMIAATMDLPVDKNLGYAWIVPYKNKAQFQMGYKGYIQLALRTGQYKHINAIEIHEGELVNWNPLTEELEIDFTKKESDKIIGYAGYFELLNGFKKSTYWTKTQIENHRKKFSKSDYGWNKDFDAMAIKTVIRNMLSKWGILSIEMQNAYTADENIIKDSFIDDSENVSANIEDLVEADYTVNQDSLESKEEFEGTPLE
B9: SSAP_266: SEQ ID NO: 435; Bacteroides stercoris (protein, listed as Bacteroides stercoris)
chain: STITTIPQLKSMLANDNVKARFKEILGKKAPGFISSIVAVANSNTLLQKAEPQSIMNAAVVAATLDLPINPNLGFAYVVPYGNQAQFQMGWRGFVQLAMRSGQYKTINVNEIYEGEIKKSNRFTGEYEFGERASDKIVGYMAYFSLINGFEKFLYMSKEDCEKHGRKFSQTYKRGTGIWSTDFDSMAKKTVLKMLLSKFGILSIEMQRAQTFDQAIIKDNLAETDIDEAEVSYNDNPDNEEARRNAMKEALQEAEVVDENTGELFNTETK
B10: SSAP_232: SEQ ID NO: 401; Lactococcus fujiensis JCM 16395 (protein, listed as Lactococcus fujiensis)
chain: KSAPVQARFQEVLGKKSSGFVSSLLTVVNNNNLLKRATPDSIMTAAMKAATLDLPIEPSLGFAYIIPYGQEAQFQIGYKGLIQLALRSGQITGLNSGIVYKSQFISYDPLFEELEIDFMQPEDEVVGYFASMKLSNGFMKVVYWTKARVENHKKRFSKAGAKSPWATDFDAMAQKTVLKAMISKFAPLSQEMQIAVIADNESETLEPKDVTPEQPLISIDEPKENENSQSQISIPEDQAPQQENEEFVEELFPVGQA
B11: SSAP_97: SEQ ID NO: 266; Gilliamella apicola (protein, listed as Gilliamella apicola)
chain: SEQNQPPIAKSDLEKTQLTNQDKKPATLAELVNSPKIKNQLAMALPKHMNPDRMARIVTTEIRKTPALADSNIQSFLGAVVQCSQLGLEPGGALGHAYLLPFGNGKAKDGKSNVQLIIGYRGMIDLARRSGQIISISARTVREGDDFHYEYGLNEDLKHTPKADESAPITYVYAVARLKDGGSQFEVMTFNQIESVRKQSKAGDKGPWITHWEEMAKKTVIRRLFKYLPVSIEIQQAVILDEKAEAGISQDNEMILDADFSVVEA
B12: SSAP_82: SEQ ID NO: 251 (protein)
chain: ENEVMTQDQAYEVASPFGSSENFQKLFDIGKMFASSSLVPDRYRGKPMDCTIAVDMANRMGVSPMMVMQQLYVVKGNPQWSGQACMSLIRGSSEYKNVRPVYTGKKGEDSWGCYIEAEKKKTGEIVKGTEVTIAMAKAEGWYSKKDKYGNETSKWQTMPELMLAYRAAAFFARVYIPNALMGCAVEGEAEDIMKRAITAEDPFKEDAK

Each molecule was assayed on gene editing with Cas9 and dCas9 (assay: Screen of 322 new SSAP proteins, activity across all experiments (Cas9 and dCas9, Table 5)). Settings: not given.
Type: cell-based
Design: scale not given here
Method in brief: (§1)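 Editing screen of 322 newly identified, synthesized SSAPs, each co-used with Cas9 and with dCas9.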

Molecule | Activity across all experiments
B1 | −4.494
B2 | −5.073
B3 | −2.611
B4 | −2.714
B5 | −2.900
B6 | −2.185
B7 | −3.661
B8 | 0.551
B9 | −5.345
B10 | −2.757
B11 | −5.290
B12 | −4.391

Each molecule was assayed on gene editing with dCas9 (assay: Screen of 322 new SSAP proteins, gene editing activity with dCas9 (Table 5)). Settings: not given.
Type: cell-based
Design: dCas9 with SSAP activity: scale not given here
Method in brief: as §1

Molecule | dCas9 with SSAP activity
B1 | −4.458
B2 | −4.572
B3 | −4.540
B4 | −4.650
B5 | −4.593
B6 | −4.569
B7 | −4.680
B8 | 0.705
B9 | −4.677
B10 | −4.457
B11 | −4.633
B12 | −4.498

Same assay, conditions: normalized

Molecule | dCas9 with SSAP activity (normalized)
B1 | −1.272
B2 | −0.829
B3 | −0.705
B4 | −0.774
B5 | −0.870
B6 | −0.746
B7 | −0.675
B8 | 1.131
B9 | −0.799
B10 | −0.721
B11 | −0.842
B12 | −0.873

Each molecule was assayed on gene editing with Cas9 (assay: Screen of 322 new SSAP proteins, gene editing activity with Cas9 (Table 5)). Settings: not given.
Type: cell-based
Design: Cas9 with SSAP activity: scale not given here
Method in brief: as §1

Molecule | Cas9 with SSAP activity
B1 | −4.531
B2 | −5.574
B3 | −0.682
B4 | −0.778
B5 | −1.206
B6 | 0.198
B7 | −2.642
B8 | 0.397
B9 | −6.013
B10 | −1.056
B11 | −5.948
B12 | −4.284

Same assay, conditions: normalized

Molecule | Cas9 with SSAP activity (normalized)
B1 | −1.341
B2 | −1.211
B3 | −0.190
B4 | −0.800
B5 | −0.494
B6 | 0.190
B7 | −0.956
B8 | 0.895
B9 | −1.700
B10 | −0.259
B11 | −1.267
B12 | −0.776
